Laboratory results: article PMC10707464

Assays:
CCCCSC1CCC(=O)O1 = assay: purified protein; conditions: pH 8.0; 25.0 °C
[1] = test system: CCCCCCCCCC(=O)CC(=O)N[C@H]1CCOC1=O; assay: purified protein; conditions: 25.0 °C

| Substance | Km (CCCCSC1CCC(=O)O1) [µM] | kcat/Km (CCCCSC1CCC(=O)O1) [M⁻¹ s⁻¹] | kcat/Km [1] [M⁻¹ s⁻¹] |
| --- | --- | --- | --- |
| SsoPox (Saccharolobus solfataricus P2) | 80 ± 3 | 360000 ± 10000 | – |
| SacPox (Sulfolobus acidocaldarius DSM 639) | 24 ± 0.5 | 1.86e+06 ± 70000 | 1.62e+07 ± 2.2e+06 |
